# Measured values reported in patent publication US20250206823A1 (published 2025).
# B1: CD33/CD16A bispecific antibody QP411543674368 (FC with L234A/L235A mutation for eliminating function) (bispecific antibody)
# scFv: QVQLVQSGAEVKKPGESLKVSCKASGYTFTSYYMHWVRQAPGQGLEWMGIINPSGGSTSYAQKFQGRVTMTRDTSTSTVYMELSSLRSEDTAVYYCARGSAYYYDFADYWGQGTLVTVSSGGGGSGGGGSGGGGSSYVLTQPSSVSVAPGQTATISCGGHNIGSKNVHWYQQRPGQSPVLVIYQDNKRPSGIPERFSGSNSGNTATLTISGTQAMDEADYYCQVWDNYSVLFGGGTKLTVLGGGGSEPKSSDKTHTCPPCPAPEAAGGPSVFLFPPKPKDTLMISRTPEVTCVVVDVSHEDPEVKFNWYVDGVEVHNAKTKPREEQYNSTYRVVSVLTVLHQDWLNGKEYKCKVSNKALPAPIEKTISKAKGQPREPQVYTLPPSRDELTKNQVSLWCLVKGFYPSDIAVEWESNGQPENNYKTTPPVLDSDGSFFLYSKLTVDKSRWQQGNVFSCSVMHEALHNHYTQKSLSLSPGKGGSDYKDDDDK
# heavy: QVQLVQSGAEVKKPGESVKVSCKASGYTFTNYGMNWVKQAPGQGLEWMGWINTYTGEPTYADKFQGRVTMTTDTSTSTAYMEIRNLGGDDTAVYYCARWSWSDGYYVYFDYWGQGTSVTVSSASTKGPSVFPLAPSSKSTSGGTAALGCLVKDYFPEPVTVSWNSGALTSGVHTFPAVLQSSGLYSLSSVVTVPSSSLGTQTYICNVNHKPSNTKVDKKVEPKSCDKTHTCPPCPAPEAAGGPSVFLFPPKPKDTLMISRTPEVTCVVVDVSHEDPEVKFNWYVDGVEVHNAKTKPREEQYNSTYRVVSVLTVLHQDWLNGKEYKCKVSNKALPAPIEKTISKAKGQPREPQVYTLPPSREEMTKNQVSLSCAVKGFYPSDIAVEWESNGQPENNYKTTPPVLDSDGSFFLVSKLTVDKSRWQQGNVFSCSVMHEALHNRYTQKSLSLSPGKGGSHHHHHH
# light: DIVMTQSPDSLTVSLGERTTINCKSSQSVLDSSTNKNSLAWYQQKPGQPPKLLLSWASTRESGIPDRFSGSGSGTDFTLTIDSPQPEDSATYYCQQSAHFPITFGQGTRLEIKRTVAAPSVFIFPPSDEQLKSGTASVVCLLNNFYPREAKVQWKVDNALQSGNSQESVTEQDSKDSTYSLSSTLTLSKADYEKHKVYACEVTHQGLSSPVTKSFNRGEC
# Molecular target: CD33 naturally expressed on HL60 cells (human, UniProt P20138 18-364)
# Sequence (P20138 18-364): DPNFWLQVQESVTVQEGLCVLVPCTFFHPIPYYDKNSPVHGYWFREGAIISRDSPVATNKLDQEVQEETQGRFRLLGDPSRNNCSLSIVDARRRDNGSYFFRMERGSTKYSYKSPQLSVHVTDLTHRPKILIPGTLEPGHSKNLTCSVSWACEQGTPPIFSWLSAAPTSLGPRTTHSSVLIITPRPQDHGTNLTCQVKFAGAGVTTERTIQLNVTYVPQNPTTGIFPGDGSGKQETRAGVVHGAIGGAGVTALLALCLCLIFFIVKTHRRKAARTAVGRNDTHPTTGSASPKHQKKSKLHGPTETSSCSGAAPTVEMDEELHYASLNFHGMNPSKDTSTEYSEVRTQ
# Test: FACS
binder,measurement,value
B1,EC50,11.4 nM
